From patent publication CN113150138A

B1: KPC-2单克隆抗体 4B2 (antibody, V domains shown)
VH: QVQLQQPGAELVKPGASVKMSCKASGYTFTSYNMHWVKQTPGQGLEWIGGLYPGNGDTSYNQKFKGRATLTADKSSSTAYMKLSSLTSEDSAVYFCARVGYGHYYFDYWGQGTTLTVSS
VL: DIKMTQSPSSMYASLGERVTIICKASQDINNYLSWFQQKPGKSPKTLIYRANRLAEGVPSRFSGIGSGQDYSLTISSLEYEDMGIYYCLQYDEFPLTFGAGTKLELK
B2: KPC-2单克隆抗体 1D7 (antibody, V domains shown)
VH: EVQLQQSGPELVKPGASMKISCKASGYSFTGYTMNWVKQSHGKNLEWIGLINPYNGVTTYNQRFKDKATLTVDKSSITAYMELLSLTSEDSAVYYCARRGLLGLYAMDYWGQGTSVTVSS
VL: DVQITQSPSYLAASPGETITINCRASESIFKFLAWYQEKPGKTNRLLIYSGSTLQSGIPSRFSGSGSGTDFTLTISSLEPEDFAMYYCQQHNEYPLTFGAGTKLELK

Target: 重组KPC-2蛋白 (recombinant KPC-2 protein, Klebsiella pneumoniae carbapenemase KPC-2) (Klebsiella pneumoniae (肺炎克雷伯菌)) (UniProt Q848S6)
Experiment: indirect ELISA, KPC-2 coated at 100 ng/well, antibody diluted 1:10000 to 1:2560000

Sequence of UniProt Q848S6 (Q848S6 25-293): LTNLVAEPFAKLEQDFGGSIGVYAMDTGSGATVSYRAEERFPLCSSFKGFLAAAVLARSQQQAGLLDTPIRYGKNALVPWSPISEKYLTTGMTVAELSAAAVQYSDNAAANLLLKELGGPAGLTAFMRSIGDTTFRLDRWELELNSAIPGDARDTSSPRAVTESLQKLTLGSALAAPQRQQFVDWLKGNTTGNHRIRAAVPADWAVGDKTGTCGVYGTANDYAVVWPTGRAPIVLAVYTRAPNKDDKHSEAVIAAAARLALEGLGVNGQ

Row | Binder | 效价 (ELISA titer, highest positive dilution) (dilution factor)
1 | B1 | > 2e+06
2 | B2 | > 2e+06
